Experimental data reported in article PMC4848090, “Mechanistic insight into a peptide hormone signaling complex mediating floral organ abscission” (eLife, 2016).
Non-standard residues stand in square brackets, D forms with d. No end group written: not given here. Hyp = O=C(O)[C@@H]1C[C@@H](O)CN1

T1: 1:1 HAESA – SERK1 ectodomain mixture (Arabidopsis thaliana, UniProt P47735 20-620; Q94AG2 24-213, Asn115→Asp | Asn163→Gln, N-glycans)
T1 construct: HAESA, Arabidopsis thaliana, ectodomain residues 20–620; SERK1, Arabidopsis thaliana, ectodomain residues 24–213; they are the content of the ITC cell into which the peptides were titrated; also called HAESA/SERK1 protein solution; HAESA - SERK1 mixture; source: Trichoplusia ni Tnao38 cells (baculovirus), each ectodomain expressed and purified separately, then mixed 1:1; not …
T1 sequence (looked up) 1: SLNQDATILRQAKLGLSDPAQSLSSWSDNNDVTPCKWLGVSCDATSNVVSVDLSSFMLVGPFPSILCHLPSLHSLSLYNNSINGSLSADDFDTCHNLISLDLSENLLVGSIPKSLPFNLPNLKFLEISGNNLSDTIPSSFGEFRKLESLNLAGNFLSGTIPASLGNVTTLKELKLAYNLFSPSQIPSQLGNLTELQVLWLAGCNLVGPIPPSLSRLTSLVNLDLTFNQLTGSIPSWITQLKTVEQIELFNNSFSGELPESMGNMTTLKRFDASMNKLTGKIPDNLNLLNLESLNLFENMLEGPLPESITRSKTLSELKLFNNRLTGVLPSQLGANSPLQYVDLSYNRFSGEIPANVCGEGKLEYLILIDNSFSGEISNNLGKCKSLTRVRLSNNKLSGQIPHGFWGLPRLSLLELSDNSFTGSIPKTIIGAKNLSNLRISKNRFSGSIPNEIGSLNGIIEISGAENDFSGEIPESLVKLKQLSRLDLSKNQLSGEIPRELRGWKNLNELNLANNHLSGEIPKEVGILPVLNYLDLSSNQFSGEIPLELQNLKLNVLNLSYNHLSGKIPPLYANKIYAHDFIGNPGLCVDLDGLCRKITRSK
T1 sequence (looked up) 2: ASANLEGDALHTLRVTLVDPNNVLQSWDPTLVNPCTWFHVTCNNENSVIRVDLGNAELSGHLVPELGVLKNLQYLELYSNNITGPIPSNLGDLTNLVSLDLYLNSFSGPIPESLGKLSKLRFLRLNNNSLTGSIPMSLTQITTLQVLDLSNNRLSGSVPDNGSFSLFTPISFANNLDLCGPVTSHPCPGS

T2: 1:1 HAESA – SERK1 ectodomain mixture (Arabidopsis thaliana, UniProt P47735 20-620; Q94AG2 24-213, Asn115→Asp | Asn163→Gln, N-glycans)
T2 sequence 1: T1 sequence (looked up) 1
T2 sequence 2: T1 sequence (looked up) 2

T3: Arabidopsis thaliana HAESA ectodomain (residues 20–620) (Arabidopsis thaliana, UniProt P47735 20-620, N-glycans (glycoprotein of ~75 kDa))
T3 construct: HAESA, leucine-rich repeat receptor kinase, Arabidopsis thaliana, ectodomain residues 20–620; Synthetic gene, codon optimized; the vector provides an azurocidin signal peptide for secretion; also called HAESA LRR domain; HAESA LRR ectodomain; not shown: Strep, C-terminal, cleaved; 9xHis, C-terminal, cleaved
T3 sequence (looked up): T1 sequence (looked up) 1

T4: Arabidopsis thaliana SERK1 ectodomain (residues 24–213, Asn115→Asp and Asn163→Gln) (Arabidopsis thaliana, UniProt Q94AG2 24-213, Asn115→Asp | Asn163→Gln)
T4 sequence: T1 sequence (looked up) 2

B1: synthetic Lys66/Arg67 → Ala mutant IDA peptide (peptide)
peptide: YVPIPPSA[Hyp]SAAHN
notes: INFLORESCENCE DEFICIENT IN ABSCISSION (IDA), Arabidopsis thaliana; as the IDA stretch of m3 with the two changes; also called IDA K66A/R67A; IDA K66A/R66A; source: synthetic peptide
B2: synthetic IDL1 peptide YLVPPSG-Hyp-SMRHN (ITC) (peptide)
peptide: YLVPPSG[Hyp]SMRHN
B3: SERK1: LRR ectodomain of Arabidopsis SERK1 co-receptor (residues 24–213, Asn115→Asp, Asn163→Gln), expressed in insect cells (protein)
chain: T1 sequence (looked up) 2
modifications: left off: Strep, C-terminal, cleaved | 9xHis, C-terminal, cleaved
notes: LRR ectodomain of Arabidopsis SERK1 co-receptor (residues 24–213, Asn115→Asp, Asn163→Gln), expressed in insect cells
B4: synthetic IDA peptide YVPIPPSA-Hyp-SKRHN (peptide)
peptide: YVPIPPSA[Hyp]SKRHN
notes: N-terminal Tyr residue added to allow for peptide quantification by UV absorbance; INFLORESCENCE DEFICIENT IN ABSCISSION (IDA), Arabidopsis thaliana; Hyp written as P; Used in ITC and for the HAESA-IDA-SERK1 complex that was crystallised; also called wild-type IDA; IDA wild-type; source: synthetic peptide
B5: synthetic IDL1 peptide LVPPSG-Hyp-SMRHN (crystal soak) (peptide)
peptide: LVPPSG[Hyp]SMRHN
notes: IDA-LIKE 1 (IDL1), Arabidopsis thaliana; Hyp written as P; source: synthetic peptide
B6: Arabidopsis thaliana HAESA ectodomain (residues 20–620) (domain or fragment)
chain: T1 sequence (looked up) 1
modifications: N-glycans (glycoprotein of ~75 kDa)
B7: synthetic PKGV-IDA peptide YPKGVPIPPSA-Hyp-SKRHN (peptide)
peptide: YPKGVPIPPSA[Hyp]SKRHN
notes: N-terminal Tyr; INFLORESCENCE DEFICIENT IN ABSCISSION (IDA), Arabidopsis thaliana; Hyp written as P; also called N-terminally extended IDA peptide; source: synthetic peptide
B8: synthetic IDA peptide PIPPSA-Hyp-SKRHN (crystal soak) (peptide)
peptide: PIPPSA[Hyp]SKRHN
notes: INFLORESCENCE DEFICIENT IN ABSCISSION (IDA), Arabidopsis thaliana, residues 58-69; Hyp written as P; also called dodecamer peptide; source: synthetic peptide

Legend:
[1] = test system: HAESA and SERK1 ectodomains; experiment: Analytical size-exclusion chromatography of HAESA – SERK1 ectodomain complex formation with peptide; assay type: binding, Arabidopsis thaliana; conditions: Superdex 200 HR 10/30, 20 mM citric acid pH 5, 100 mM NaCl; peptide 25 μM; HAESA and SERK1 1:1 molar ratio; UV 280 nm
Method: Gel filtration experiments were performed using a Superdex 200 HR 10/30 column (GE Healthcare) pre-equilibrated in 20 mM citric acid (pH 5) and 100 mM NaCl. 100 μL of the isolated HAESA ectodomain (5.5 mg/mL), of the purified SERK1 LRR domain (3 mg/mL) or of mixtures of HAESA and SERK1 (either in the presence or absence of synthetic wild-type IDA, wild-type IDL1 or mutant IDA peptides at a concentration of 25 μM; 10 mg/mL; samples contained HAESA and SERK1 in 1:1 molar ratio) were loaded sequentially onto the column and elution at 0.5 mL/min was monitored by ultraviolet absorbance at 280 nm.

[2] = target: T5, HAESA ectodomain (residues 20–620) (Arabidopsis thaliana, UniProt P47735); experiment: Isothermal titration calorimetry of synthetic IDA-family peptides vs. the isolated HAESA ectodomain; assay type: binding
T5 construct: We purified the HAESA ectodomain (residues 20–620) from baculovirus-infected insect cells; azurocidin signal peptide (N); made in house; host or cells: Trichoplusia ni Tnao38 insect cells (baculovirus, secreted)
Source text: (§1) Synthetic genes coding for the Arabidopsis thaliana HAESA (residues 20–620) and SERK1 ectodomains (residues 24–213, carrying Asn115→Asp and Asn163→Gln mutations), codon optimized for expression in Trichoplusia ni (Geneart, Germany), were cloned into a modified pBAC-6 transfer vector (Novagen, Billerica, MA), providing an azurocidin signal peptide and a C-terminal TEV (tobacco etch virus protease) cleavable Strep-9xHis tandem affinity tag. Recombinant baculoviruses were generated by co-transfecting transfer vectors with linearised baculovirus DNA (ProFold-ER1, AB vector, San Diego, CA) followed by viral amplification in Spodoptera frugiperda Sf9 cells. […] The purified HAESA ectodomain was incubated with a synthetic IDA peptide (YVPIPPSA-Hyp-SKRHN, the N-terminal Tyr residue was added to allow for peptide quantification by UV absorbance) and the SERK1 ectodomain in 1:1:1.5 molar ratio. […]
(§2) ITC experiments were performed using a Nano ITC (TA Instruments, New Castle, DE) with a 1.0 mL standard cell and a 250 μL titration syringe. […] Molar protein concentrations for SERK1 and HAESA were calculated using their molar extinction coefficient and a molecular weight of 27,551 and 74,896 Da, respectively (determined by MALDI-TOF mass spectrometry). […] Data were analyzed using the NanoAnalyze program (version 2.3.6) as provided by the manufacturer.

[3] = target: T1, 1:1 HAESA – SERK1 ectodomain mixture; experiment: ITC; 150 μM wild-type or mutant IDA peptide in the syringe, 10 μM of a 1:1 HAESA – SERK1 protein mixture in the cell; 25°C; 20 mM citric acid pH 5.0, 100 mM NaCl; conditions: both partners purified
[4] = target: B6; experiment: ITC
HAESA - IDA = experiment: Isothermal titration calorimetry of SERK1 titrated into HAESA in the presence of IDA; assay type: binding, Arabidopsis thaliana; conditions: ITC, 25°C, pH 5.0; SERK1 (100 μM) titrated into HAESA (10 μM) in the presence of 150 μM wild-type IDA peptide
Source text: as §1, §2

HAESA ectodomain = experiment: Isothermal titration calorimetry of SERK1 titrated into HAESA ectodomain only; design: species or system Arabidopsis thaliana; conditions: ITC, 25°C, pH 5.0; SERK1 (100 μM) titrated into HAESA (10 μM) in the absence of IDA; n.d. no detectable binding
Source text: as §1, §2

[5] = target: T2, 1:1 HAESA – SERK1 ectodomain mixture; experiment: ITC; HAESA - SERK1 mixture in cell
[6] = target: T3, Arabidopsis thaliana HAESA ectodomain …; experiment: crystal structure; apo HAESA ectodomain crystals soaked in crystallization buffer with 15 mM synthetic peptide; conditions: both partners purified
[7] = target: T4, Arabidopsis thaliana SERK1 ectodomain …; experiment: ITC; in presence of IDA

“IDA Hyp64P: IDA mutant peptide with Hyp64 replaced with proline (YVPIPPSAPSKRHN)” was tested, and the “HAESA – SERK1 complex formation in size exclusion chromatography” value [1] was “no complex formation”.

Molecule `CC[C@H](C)[C@H](NC(=O)[C@@H]1CCCN1C(=O)[C@@H](NC(=O)[C@@H](N)Cc1ccc(O)cc1)C(C)C)C(=O)N1CCC[C@H]1C(=O)N1CCC[C@H]1C(=O)N[C@@H](CO)C(=O)N[C@@H](C)C(=O)N1C[C@H](O)C[C@H]1C(=O)N[C@@H](CO)C(=O)N[C@@H](CCCCN)C(=O)N[C@@H](CCCNC(=N)N)C(=O)N[C@@H](Cc1c[nH]cn1)C(=O)N[C@@H](CC(N)=O)C(=O)O` [IDA] has a Kd [2] of 20 ± 0.9 µM.

With “YPIPPSA[Hyp]SKRHNSFVN [IDA-SFVN, C-terminally extended IDA peptide]” the “binding to the HAESA ectodomain, in words” value ([2]; ITC) was “cannot bind”.

In the case of B1, the “fold reduced binding affinity against wild-type IDA” value [3] is reported as 10 fold.

With B2 the Kd [4] was 135 µM.

For B3, the “Kd of SERK1, protein in cell: HAESA - IDA” value (HAESA - IDA) was “mid-nanomolar range” and the “Kd of SERK1, protein in cell: HAESA” value (HAESA ectodomain) was “no detectable interaction”.

In the case of B4, the “fold higher binding affinity than for HAESA alone” value [3] is reported as roughly 60 fold and the Kd [5] is reported as 0.35 µM.

B5: binds [6].

B6 gave a Kd [7] of 0.075 µM.

B7 was tested, and the binding result [6] was “binds” and the Kd [4] was 25 µM.

B8: binds [6].
